In US8273855:

Tests used:
Test in all cases: cell-based or functional assay
[1] = molecular target: myc-tagged full-length mouse Notch1 on transfected OLN cells (mouse) (UniProt Q01705)
[2] = molecular target: Notch on primary rat oligodendrocytes and oligodendrocyte precursor cells (rat) (UniProt Q07008)
[3] = molecular target: Notch1 of mouse neural stem cells (NSCs) (mouse) (UniProt Q01705)
Notch1 of mouse neural stem cells (NSCs) (mouse), sequence (Q01705 19-2531 limits assumed): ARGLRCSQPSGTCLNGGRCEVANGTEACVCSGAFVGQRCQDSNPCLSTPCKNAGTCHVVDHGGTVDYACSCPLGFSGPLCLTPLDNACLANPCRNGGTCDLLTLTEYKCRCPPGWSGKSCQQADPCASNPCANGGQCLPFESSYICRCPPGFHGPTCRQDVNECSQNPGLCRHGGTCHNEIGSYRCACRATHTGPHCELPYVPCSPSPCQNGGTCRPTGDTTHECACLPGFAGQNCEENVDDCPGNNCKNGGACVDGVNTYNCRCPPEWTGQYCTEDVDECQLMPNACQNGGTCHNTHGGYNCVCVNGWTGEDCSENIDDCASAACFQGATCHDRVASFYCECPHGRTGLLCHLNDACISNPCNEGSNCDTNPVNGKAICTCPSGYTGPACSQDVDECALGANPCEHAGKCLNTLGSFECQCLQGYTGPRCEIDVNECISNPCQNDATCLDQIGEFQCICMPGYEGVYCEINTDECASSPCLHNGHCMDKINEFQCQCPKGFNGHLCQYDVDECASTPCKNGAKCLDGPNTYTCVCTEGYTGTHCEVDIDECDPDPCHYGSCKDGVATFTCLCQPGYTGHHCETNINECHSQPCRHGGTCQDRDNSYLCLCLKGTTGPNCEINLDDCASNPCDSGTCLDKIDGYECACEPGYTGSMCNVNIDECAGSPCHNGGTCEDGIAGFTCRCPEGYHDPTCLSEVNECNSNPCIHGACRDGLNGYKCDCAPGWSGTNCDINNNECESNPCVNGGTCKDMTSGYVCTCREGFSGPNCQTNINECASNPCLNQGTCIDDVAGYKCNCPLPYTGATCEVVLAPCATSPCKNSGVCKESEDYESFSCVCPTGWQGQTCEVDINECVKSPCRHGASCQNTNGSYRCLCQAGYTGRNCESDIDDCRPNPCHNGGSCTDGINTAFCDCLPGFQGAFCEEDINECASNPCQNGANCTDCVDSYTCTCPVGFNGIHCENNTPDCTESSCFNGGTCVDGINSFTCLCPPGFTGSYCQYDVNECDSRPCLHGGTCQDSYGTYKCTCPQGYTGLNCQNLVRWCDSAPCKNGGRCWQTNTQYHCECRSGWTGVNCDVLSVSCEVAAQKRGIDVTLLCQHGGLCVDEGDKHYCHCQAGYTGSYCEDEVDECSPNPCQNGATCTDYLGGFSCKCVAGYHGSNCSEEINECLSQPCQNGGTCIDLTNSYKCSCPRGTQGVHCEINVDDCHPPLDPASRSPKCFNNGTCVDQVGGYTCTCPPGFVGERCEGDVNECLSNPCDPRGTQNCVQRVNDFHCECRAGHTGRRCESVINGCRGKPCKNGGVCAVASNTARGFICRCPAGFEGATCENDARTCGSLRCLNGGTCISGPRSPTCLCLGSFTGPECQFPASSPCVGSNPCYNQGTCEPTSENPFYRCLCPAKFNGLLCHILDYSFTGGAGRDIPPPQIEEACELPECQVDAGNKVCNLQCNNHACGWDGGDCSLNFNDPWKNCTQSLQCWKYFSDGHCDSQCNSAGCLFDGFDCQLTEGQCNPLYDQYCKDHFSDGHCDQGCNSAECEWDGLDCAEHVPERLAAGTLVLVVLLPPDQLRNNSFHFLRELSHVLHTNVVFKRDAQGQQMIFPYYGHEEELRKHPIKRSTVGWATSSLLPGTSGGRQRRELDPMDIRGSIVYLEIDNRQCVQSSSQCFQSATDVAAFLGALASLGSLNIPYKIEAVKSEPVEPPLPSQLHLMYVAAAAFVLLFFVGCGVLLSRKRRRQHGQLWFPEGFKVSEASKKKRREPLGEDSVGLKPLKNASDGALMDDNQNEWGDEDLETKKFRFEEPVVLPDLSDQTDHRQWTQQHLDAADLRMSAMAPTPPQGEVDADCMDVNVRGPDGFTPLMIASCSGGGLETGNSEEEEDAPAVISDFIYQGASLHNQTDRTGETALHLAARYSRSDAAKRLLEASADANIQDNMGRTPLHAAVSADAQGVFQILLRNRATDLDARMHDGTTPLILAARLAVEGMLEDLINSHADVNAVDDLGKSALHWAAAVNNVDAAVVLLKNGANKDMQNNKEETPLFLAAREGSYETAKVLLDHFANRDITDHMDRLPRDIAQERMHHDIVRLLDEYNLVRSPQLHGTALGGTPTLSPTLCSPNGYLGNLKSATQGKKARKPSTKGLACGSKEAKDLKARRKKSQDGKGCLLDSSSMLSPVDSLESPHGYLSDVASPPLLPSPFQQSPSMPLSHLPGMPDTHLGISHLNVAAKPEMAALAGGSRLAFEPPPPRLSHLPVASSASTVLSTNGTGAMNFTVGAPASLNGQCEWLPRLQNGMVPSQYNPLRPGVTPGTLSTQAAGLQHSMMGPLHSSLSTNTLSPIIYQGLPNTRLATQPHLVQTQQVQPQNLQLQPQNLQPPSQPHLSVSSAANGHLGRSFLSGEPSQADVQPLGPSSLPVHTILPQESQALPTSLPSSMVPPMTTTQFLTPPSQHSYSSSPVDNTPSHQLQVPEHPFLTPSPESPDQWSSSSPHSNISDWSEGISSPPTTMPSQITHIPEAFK

Notch on primary rat oligodendrocytes and oligodendrocyte precursor cells (rat), sequence (Q07008 19-2531): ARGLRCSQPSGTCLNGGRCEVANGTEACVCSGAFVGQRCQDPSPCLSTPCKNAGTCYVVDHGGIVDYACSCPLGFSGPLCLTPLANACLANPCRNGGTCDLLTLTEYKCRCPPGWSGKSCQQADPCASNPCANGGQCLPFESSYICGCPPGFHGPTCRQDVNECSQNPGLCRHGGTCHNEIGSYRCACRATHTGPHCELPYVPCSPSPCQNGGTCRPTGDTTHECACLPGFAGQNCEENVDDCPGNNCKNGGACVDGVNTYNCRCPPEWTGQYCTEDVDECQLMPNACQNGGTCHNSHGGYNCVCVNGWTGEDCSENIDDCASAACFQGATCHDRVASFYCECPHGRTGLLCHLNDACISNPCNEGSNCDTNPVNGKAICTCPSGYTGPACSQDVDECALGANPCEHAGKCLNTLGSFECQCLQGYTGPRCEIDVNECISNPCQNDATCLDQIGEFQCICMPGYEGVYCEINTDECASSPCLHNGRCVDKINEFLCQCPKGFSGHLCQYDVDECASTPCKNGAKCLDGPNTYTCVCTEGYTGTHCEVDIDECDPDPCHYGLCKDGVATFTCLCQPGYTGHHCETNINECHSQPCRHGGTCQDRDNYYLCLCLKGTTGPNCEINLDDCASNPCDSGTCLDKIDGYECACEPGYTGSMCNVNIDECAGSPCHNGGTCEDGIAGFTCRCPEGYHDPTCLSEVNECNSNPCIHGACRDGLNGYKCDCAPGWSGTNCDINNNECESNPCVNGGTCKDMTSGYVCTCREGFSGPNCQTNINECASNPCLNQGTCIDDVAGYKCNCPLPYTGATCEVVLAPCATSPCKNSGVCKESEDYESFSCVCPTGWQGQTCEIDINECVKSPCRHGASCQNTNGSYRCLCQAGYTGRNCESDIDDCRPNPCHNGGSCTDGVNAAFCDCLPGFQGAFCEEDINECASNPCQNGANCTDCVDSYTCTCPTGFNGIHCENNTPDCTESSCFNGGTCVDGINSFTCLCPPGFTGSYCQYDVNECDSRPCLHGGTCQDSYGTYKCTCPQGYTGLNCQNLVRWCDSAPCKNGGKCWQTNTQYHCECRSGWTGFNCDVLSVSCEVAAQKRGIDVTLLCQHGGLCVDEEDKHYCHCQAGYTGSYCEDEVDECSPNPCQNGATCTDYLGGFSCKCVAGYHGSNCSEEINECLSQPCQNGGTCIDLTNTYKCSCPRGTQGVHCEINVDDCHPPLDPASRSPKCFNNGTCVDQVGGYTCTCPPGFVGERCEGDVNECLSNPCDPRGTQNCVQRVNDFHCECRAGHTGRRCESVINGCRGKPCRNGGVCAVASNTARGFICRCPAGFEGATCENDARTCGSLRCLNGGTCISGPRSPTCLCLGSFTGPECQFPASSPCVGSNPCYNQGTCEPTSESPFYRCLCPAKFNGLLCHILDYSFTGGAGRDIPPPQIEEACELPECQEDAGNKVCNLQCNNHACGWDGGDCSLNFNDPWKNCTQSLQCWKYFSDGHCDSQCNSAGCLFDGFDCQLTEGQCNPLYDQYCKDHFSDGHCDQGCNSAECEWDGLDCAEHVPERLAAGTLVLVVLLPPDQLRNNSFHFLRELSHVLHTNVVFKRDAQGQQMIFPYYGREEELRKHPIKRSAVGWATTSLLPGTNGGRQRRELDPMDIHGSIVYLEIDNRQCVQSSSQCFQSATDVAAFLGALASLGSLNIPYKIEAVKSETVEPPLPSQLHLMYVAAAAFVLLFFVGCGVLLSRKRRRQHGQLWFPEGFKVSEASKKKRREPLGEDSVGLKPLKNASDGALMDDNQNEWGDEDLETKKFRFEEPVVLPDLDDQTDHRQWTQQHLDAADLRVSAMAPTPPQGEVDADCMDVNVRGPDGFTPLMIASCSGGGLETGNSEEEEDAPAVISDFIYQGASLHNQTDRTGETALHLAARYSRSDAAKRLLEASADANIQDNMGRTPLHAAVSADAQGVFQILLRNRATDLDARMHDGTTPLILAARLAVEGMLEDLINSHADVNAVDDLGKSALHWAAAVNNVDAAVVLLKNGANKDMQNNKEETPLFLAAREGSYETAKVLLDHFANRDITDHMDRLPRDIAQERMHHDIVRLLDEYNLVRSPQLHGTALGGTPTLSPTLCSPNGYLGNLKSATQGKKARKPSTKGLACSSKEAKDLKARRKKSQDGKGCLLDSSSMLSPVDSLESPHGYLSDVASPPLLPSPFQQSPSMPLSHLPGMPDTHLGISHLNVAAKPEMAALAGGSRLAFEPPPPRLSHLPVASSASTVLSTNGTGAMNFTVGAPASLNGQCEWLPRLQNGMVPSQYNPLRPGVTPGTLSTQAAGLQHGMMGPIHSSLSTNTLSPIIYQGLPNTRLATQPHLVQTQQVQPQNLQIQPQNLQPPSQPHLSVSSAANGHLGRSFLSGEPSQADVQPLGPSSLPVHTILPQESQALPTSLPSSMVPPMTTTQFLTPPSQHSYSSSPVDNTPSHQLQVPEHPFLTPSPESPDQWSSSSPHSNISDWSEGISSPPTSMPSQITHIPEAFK
myc-tagged full-length mouse Notch1 on transfected OLN cells (mouse), sequence (Q01705 19-2531): as the sequence (Q01705 19-2531 limits assumed) above

“NB-3 (recombinant protein, as substrate or soluble; tag not stated at these places) (from UniProt P97528 20-999) (ligand)” showed an MAG staining intensity [1] of 2.5 fold, an MAG transcripts, real-time PCR, primary OLs [2] of 24 fold and an OPC differentiation into CNPase-positive OLs [2] of 75%. For the same substance, the OL generation from NSCs, flow cytometry [3] was 2 fold.
